# Laboratory results as given in patent US20250161408A1, “PEPTIDIC INHIBITORS OF AMYLOID SELF- AND CROSS-ASSEMBLY” (TECHNISCHE UNIVERSITÄT MÜNCHEN, priority 2022, published 2025).
# Non-standard residues stand in square brackets, D forms with d. NMeF = CN[C@@H](Cc1ccccc1)C(=O)O; NMeL = CN[C@@H](CC(C)C)C(=O)O; NMeV = CN[C@H](C(=O)O)C(C)C; Nle = CCCC[C@H](N)C(=O)O
# B1: L3-VF (peptide)
# peptide: H-QKL[NMeV]F[NMeF]AEDLLLNKGAIIGL[Nle]VGGVV-OH
# SMILES: CCCC[C@H](NC(=O)[C@H](CC(C)C)NC(=O)CNC(=O)[C@@H](NC(=O)[C@@H](NC(=O)[C@H](C)NC(=O)CNC(=O)[C@H](CCCCN)NC(=O)[C@H](CC(N)=O)NC(=O)[C@H](CC(C)C)NC(=O)[C@H](CC(C)C)NC(=O)[C@H](CC(C)C)NC(=O)[C@H](CC(=O)O)NC(=O)[C@H](CCC(=O)O)NC(=O)[C@H](C)NC(=O)[C@H](Cc1ccccc1)N(C)C(=O)[C@H](Cc1ccccc1)NC(=O)[C@H](C(C)C)N(C)C(=O)[C@H](CC(C)C)NC(=O)[C@H](CCCCN)NC(=O)[C@@H](N)CCC(N)=O)[C@@H](C)CC)[C@@H](C)CC)C(=O)N[C@H](C(=O)NCC(=O)NCC(=O)N[C@H](C(=O)N[C@H](C(=O)O)C(C)C)C(C)C)C(C)C
# B2: Nle3-VF (peptide)
# peptide: H-QKL[NMeV]F[NMeF]AED[Nle][Nle][Nle]NKGAIIGL[Nle]VGGVV-OH
# SMILES: CCCC[C@H](NC(=O)[C@H](CC(=O)O)NC(=O)[C@H](CCC(=O)O)NC(=O)[C@H](C)NC(=O)[C@H](Cc1ccccc1)N(C)C(=O)[C@H](Cc1ccccc1)NC(=O)[C@H](C(C)C)N(C)C(=O)[C@H](CC(C)C)NC(=O)[C@H](CCCCN)NC(=O)[C@@H](N)CCC(N)=O)C(=O)N[C@@H](CCCC)C(=O)N[C@@H](CCCC)C(=O)N[C@@H](CC(N)=O)C(=O)N[C@@H](CCCCN)C(=O)NCC(=O)N[C@@H](C)C(=O)N[C@H](C(=O)N[C@H](C(=O)NCC(=O)N[C@@H](CC(C)C)C(=O)N[C@@H](CCCC)C(=O)N[C@H](C(=O)NCC(=O)NCC(=O)N[C@H](C(=O)N[C@H](C(=O)O)C(C)C)C(C)C)C(C)C)[C@@H](C)CC)[C@@H](C)CC
# B3: Nle3-LF (peptide)
# peptide: H-QK[NMeL]V[NMeF]FAED[Nle][Nle][Nle]NKGAIIGL[Nle]VGGVV-OH
# SMILES: CCCC[C@H](NC(=O)[C@H](CC(=O)O)NC(=O)[C@H](CCC(=O)O)NC(=O)[C@H](C)NC(=O)[C@H](Cc1ccccc1)NC(=O)[C@H](Cc1ccccc1)N(C)C(=O)[C@@H](NC(=O)[C@H](CC(C)C)N(C)C(=O)[C@H](CCCCN)NC(=O)[C@@H](N)CCC(N)=O)C(C)C)C(=O)N[C@@H](CCCC)C(=O)N[C@@H](CCCC)C(=O)N[C@@H](CC(N)=O)C(=O)N[C@@H](CCCCN)C(=O)NCC(=O)N[C@@H](C)C(=O)N[C@H](C(=O)N[C@H](C(=O)NCC(=O)N[C@@H](CC(C)C)C(=O)N[C@@H](CCCC)C(=O)N[C@H](C(=O)NCC(=O)NCC(=O)N[C@H](C(=O)N[C@H](C(=O)O)C(C)C)C(C)C)C(C)C)[C@@H](C)CC)[C@@H](C)CC
# B4: F3-VF (peptide)
# peptide: H-QKL[NMeV]F[NMeF]AEDFFFNKGAIIGL[Nle]VGGVV-OH
# SMILES: CCCC[C@H](NC(=O)[C@H](CC(C)C)NC(=O)CNC(=O)[C@@H](NC(=O)[C@@H](NC(=O)[C@H](C)NC(=O)CNC(=O)[C@H](CCCCN)NC(=O)[C@H](CC(N)=O)NC(=O)[C@H](Cc1ccccc1)NC(=O)[C@H](Cc1ccccc1)NC(=O)[C@H](Cc1ccccc1)NC(=O)[C@H](CC(=O)O)NC(=O)[C@H](CCC(=O)O)NC(=O)[C@H](C)NC(=O)[C@H](Cc1ccccc1)N(C)C(=O)[C@H](Cc1ccccc1)NC(=O)[C@H](C(C)C)N(C)C(=O)[C@H](CC(C)C)NC(=O)[C@H](CCCCN)NC(=O)[C@@H](N)CCC(N)=O)[C@@H](C)CC)[C@@H](C)CC)C(=O)N[C@H](C(=O)NCC(=O)NCC(=O)N[C@H](C(=O)N[C@H](C(=O)O)C(C)C)C(C)C)C(C)C
# B5: F3-LF (peptide)
# peptide: H-QK[NMeL]V[NMeF]FAEDFFFNKGAIIGL[Nle]VGGVV-OH
# SMILES: CCCC[C@H](NC(=O)[C@H](CC(C)C)NC(=O)CNC(=O)[C@@H](NC(=O)[C@@H](NC(=O)[C@H](C)NC(=O)CNC(=O)[C@H](CCCCN)NC(=O)[C@H](CC(N)=O)NC(=O)[C@H](Cc1ccccc1)NC(=O)[C@H](Cc1ccccc1)NC(=O)[C@H](Cc1ccccc1)NC(=O)[C@H](CC(=O)O)NC(=O)[C@H](CCC(=O)O)NC(=O)[C@H](C)NC(=O)[C@H](Cc1ccccc1)NC(=O)[C@H](Cc1ccccc1)N(C)C(=O)[C@@H](NC(=O)[C@H](CC(C)C)N(C)C(=O)[C@H](CCCCN)NC(=O)[C@@H](N)CCC(N)=O)C(C)C)[C@@H](C)CC)[C@@H](C)CC)C(=O)N[C@H](C(=O)NCC(=O)NCC(=O)N[C@H](C(=O)N[C@H](C(=O)O)C(C)C)C(C)C)C(C)C
# B6: L3-LF (peptide)
# peptide: H-QK[NMeL]V[NMeF]FAEDLLLNKGAIIGL[Nle]VGGVV-OH
# SMILES: CCCC[C@H](NC(=O)[C@H](CC(C)C)NC(=O)CNC(=O)[C@@H](NC(=O)[C@@H](NC(=O)[C@H](C)NC(=O)CNC(=O)[C@H](CCCCN)NC(=O)[C@H](CC(N)=O)NC(=O)[C@H](CC(C)C)NC(=O)[C@H](CC(C)C)NC(=O)[C@H](CC(C)C)NC(=O)[C@H](CC(=O)O)NC(=O)[C@H](CCC(=O)O)NC(=O)[C@H](C)NC(=O)[C@H](Cc1ccccc1)NC(=O)[C@H](Cc1ccccc1)N(C)C(=O)[C@@H](NC(=O)[C@H](CC(C)C)N(C)C(=O)[C@H](CCCCN)NC(=O)[C@@H](N)CCC(N)=O)C(C)C)[C@@H](C)CC)[C@@H](C)CC)C(=O)N[C@H](C(=O)NCC(=O)NCC(=O)N[C@H](C(=O)N[C@H](C(=O)O)C(C)C)C(C)C)C(C)C
# Experiments:
# [1] = molecular target: islet amyloid polypeptide (IAPP) (human) (UniProt P10997)
# islet amyloid polypeptide (IAPP) (human), sequence (P10997 34-70): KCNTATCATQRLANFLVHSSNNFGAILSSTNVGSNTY
# [2] = molecular target: Aβ42 (Homo sapiens (Human)) (UniProt P05067)
Binder,"IC50 of inhibitory effect on IAPP-mediated cell damage (MTT reduction, RIN5fm cells) [1] [nM]","IC50 of inhibitory effect on Aβ42-mediated cell damage (MTT reduction, PC12 cells) [2] [nM]"
B1,112,261
B2,65,367
B3,82.1,–
B4,78.5,1030
B5,41.7,262
B6,133,–
